Test [1] has as its target sRAGE antigen (biotin-labeled). The test is described as follows: ELISA with biotinylated sRAGE.
Test [2] concerns the target sRAGE antigen (biotin-labeled). In words: ELISA: antibody coated on plate, serial dilution of biotinylated sRAGE, HRP-streptavidin detection, Prism non-linear fit. A general note: In an ELISA, binding on a coated surface is turned into a signal by an enzyme label.
Test [3] deals with sRAGE antigen (biotin-labeled). The description is as above. The source holds these as a separate data set.

B1: original murine anti-RAGE monoclonal antibody (IgG2a isotype with a Kappa light chain) (antibody, V domains shown)
VH: DVQLQESGPGLVKPSQSLSLNCSVTGSSITSGYYWNWIRQFPGNKLEWMGDISYDGSNNYNPSLKNRISITRDTSKNQVFMKLNSVTTEDTAIYKCVREDRSGYPPFANWGQGTLVTVSA
VL: DVQMTQTTSSLSASLGDRVTINCRASQDISNYLNWYQQKPDGTVKLLIYYTSRLHSGVPSRFSGSGSGTDYSLTISNLEQEDIATYFCQQGNTLPWTFGGGTKLEIK
Regarding B1, the Kd (in general, a measure of binding affinity in units of concentration) in test [1] came out at 0.0626 µM; in test [2], 0.058 µM; in test [3], 0.0884 µM.

B2: mouse-human chimera anti-RAGE antibody (antibody, human IgG1, kappa, V domains shown)
VH: DVQLQESGPGLVKPSQSLSLNCSVTGSSITSGYYWNWIRQFPGNKLEWMGDISYDGSNNYNPSLKNRISITRDTSKNQVFMKLNSVTTEDTAIYKCVREDRSGYPPFANWGQGTLVTVSS
VL: DIQMTQTTSSLSASLGDRVTINCRASQDISNYLNWYQQKPDGTVKLLIYYTSRLHSGVPSRFSGSGSGTDYSLTISNLEQEDIATYFCQQGNTLPWTFGQGTKVEIKR
Consider B2, for which the Kd in test [1] is 0.104 µM; in test [2] it was 0.04 µM; in test [3] it was 0.0387 µM.

B3: humanized anti-RAGE antibody, full-length IgG1 (antibody, V domains shown)
VH: QVQLQESGPGLVKPSQTLSLTCAVYGGSITSGYYWNWIRQPPGKGLEWIGDISYDGSNNYNPSLKSRVTISRDTSKNQFSLKLSSVTAADTAVYYCVREDRSGYPPFANWGQGTLVTVSS
VL: DIQMTQSPSSLSASVGDRVTITCQASQDISNYLNWYQQKPGKAPKLLIYYTSRLHSGVPSRFSGSGSGTDFTFTISSLQPEDIATYYCQQGNTLPWTFGQGTKV
Take B3: the Kd turned out to be 0.133 µM in test [1] and 0.0421 µM in test [3].
